Laboratory results reported in the supplement of paper PMC10567573.

B1: TEKT4 (parent)
chain: LREKLLEAEQSLRNLEDIHMSLEK
B2: CDC25A (parent)
chain: TVAGKHQDLKYISPEIMASVLNGK

Variants of: B1
Test: protein stability index of a GFP-peptide fusion (GPS, HEK-293T) (PSI 1-6); higher = more stable
Details: c terminus: a fixed tail appended
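Also: lentivirally expressed fusions sorted by FACS into six bins by GFP to DsRed ratio, PSI derived from sequencing read proportions per bin multiplied by bin number.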

Q: Which protein stability index does the source give for LREKLLEAEQSLRNLEDIHMSLEE [K24E] here?
A: The protein stability index was 2.53.

Q: With LREKLLEAEQSLRNLEDIHMSLEF [K24F] as the variant, how does the protein stability index read?
A: The protein stability index was 1.25.

Q: Which protein stability index does the source give for LREKLLEAEQSLRNLEDIHMSLEG [K24G] here?
A: The protein stability index was 2.52.

Q: With LREKLLEAEQSLRNLEDIHMSLEH [K24H] as the variant, how does the protein stability index read?
A: Its protein stability index is 4.

Q: With LREKLLEAEQSLRNLEDIHMSLEI [K24I] as the variant, how does the protein stability index read?
A: The protein stability index was 1.81.

Q: With LREKLLEAEQSLRNLEDIHMSLEL [K24L] as the variant, how does the protein stability index read?
A: Its protein stability index is 1.93.

Q: With LREKLLEAEQSLRNLEDIHMSLEN [K24N] as the variant, how does the protein stability index read?
A: The protein stability index was 2.13.

Q: Which protein stability index does the source give for LREKLLEAEQSLRNLEDIHMSLEP [K24P] here?
A: The protein stability index was 2.03.

Q: For LREKLLEAEQSLRNLEDIHMSLEQ [K24Q], which protein stability index is on record?
A: Its protein stability index is 2.39.

Q: Which protein stability index does the source give for LREKLLEAEQSLRNLEDIHMSLER [K24R] here?
A: The protein stability index was 2.44.

Q: With LREKLLEAEQSLRNLEDIHMSLES [K24S] as the variant, how does the protein stability index read?
A: The protein stability index was 2.35.

Q: With LREKLLEAEQSLRNLEDIHMSLET [K24T] as the variant, how does the protein stability index read?
A: Its protein stability index is 2.98.

Q: For LREKLLEAEQSLRNLEDIHMSLEY [K24Y], which protein stability index is on record?
A: The protein stability index was 1.68.

Variants of: B2
Test: as above
Details: c terminus: a fixed tail appended

Q: Which protein stability index does the source give for AVAGKHQDLKYISPEIMASVLNGK [T1A] here?
A: Its protein stability index is 3.23.

Q: For CVAGKHQDLKYISPEIMASVLNGK [T1C], which protein stability index is on record?
A: Its protein stability index is 3.07.

Q: With DVAGKHQDLKYISPEIMASVLNGK [T1D] as the variant, how does the protein stability index read?
A: The protein stability index was 3.29.

Q: Which protein stability index does the source give for EVAGKHQDLKYISPEIMASVLNGK [T1E] here?
A: Its protein stability index is 3.45.

Q: Which protein stability index does the source give for FVAGKHQDLKYISPEIMASVLNGK [T1F] here?
A: Its protein stability index is 1.9.

Q: With GVAGKHQDLKYISPEIMASVLNGK [T1G] as the variant, how does the protein stability index read?
A: Its protein stability index is 3.06.

Q: Which protein stability index does the source give for HVAGKHQDLKYISPEIMASVLNGK [T1H] here?
A: Its protein stability index is 2.89.

Q: With IVAGKHQDLKYISPEIMASVLNGK [T1I] as the variant, how does the protein stability index read?
A: The protein stability index was 2.6.

Q: Which protein stability index does the source give for KVAGKHQDLKYISPEIMASVLNGK [T1K] here?
A: The protein stability index was 3.17.

Q: With LVAGKHQDLKYISPEIMASVLNGK [T1L] as the variant, how does the protein stability index read?
A: Its protein stability index is 2.15.

Q: For MVAGKHQDLKYISPEIMASVLNGK [T1M], which protein stability index is on record?
A: Its protein stability index is 2.34.

Q: Which protein stability index does the source give for NVAGKHQDLKYISPEIMASVLNGK [T1N] here?
A: The protein stability index was 3.69.

Q: With PVAGKHQDLKYISPEIMASVLNGK [T1P] as the variant, how does the protein stability index read?
A: Its protein stability index is 3.34.

Q: For QVAGKHQDLKYISPEIMASVLNGK [T1Q], which protein stability index is on record?
A: Its protein stability index is 3.22.

Q: Which protein stability index does the source give for RVAGKHQDLKYISPEIMASVLNGK [T1R] here?
A: Its protein stability index is 2.52.

Q: For SVAGKHQDLKYISPEIMASVLNGK [T1S], which protein stability index is on record?
A: The protein stability index was 3.14.

Q: Which protein stability index does the source give for VVAGKHQDLKYISPEIMASVLNGK [T1V] here?
A: The protein stability index was 2.52.

Q: With WVAGKHQDLKYISPEIMASVLNGK [T1W] as the variant, how does the protein stability index read?
A: Its protein stability index is 2.06.

Q: With YVAGKHQDLKYISPEIMASVLNGK [T1Y] as the variant, how does the protein stability index read?
A: The protein stability index was 3.42.

Q: Which protein stability index does the source give for TAAGKHQDLKYISPEIMASVLNGK [V2A] here?
A: Its protein stability index is 3.28.

Q: With TCAGKHQDLKYISPEIMASVLNGK [V2C] as the variant, how does the protein stability index read?
A: Its protein stability index is 3.32.

Q: For TDAGKHQDLKYISPEIMASVLNGK [V2D], which protein stability index is on record?
A: The protein stability index was 3.89.

Q: For TEAGKHQDLKYISPEIMASVLNGK [V2E], which protein stability index is on record?
A: The protein stability index was 3.68.

Q: For TFAGKHQDLKYISPEIMASVLNGK [V2F], which protein stability index is on record?
A: The protein stability index was 2.94.

Q: Which protein stability index does the source give for TGAGKHQDLKYISPEIMASVLNGK [V2G] here?
A: Its protein stability index is 3.33.

Q: Which protein stability index does the source give for THAGKHQDLKYISPEIMASVLNGK [V2H] here?
A: The protein stability index was 3.33.

Q: With TIAGKHQDLKYISPEIMASVLNGK [V2I] as the variant, how does the protein stability index read?
A: Its protein stability index is 2.91.

Q: Which protein stability index does the source give for TKAGKHQDLKYISPEIMASVLNGK [V2K] here?
A: Its protein stability index is 2.92.

Q: Which protein stability index does the source give for TLAGKHQDLKYISPEIMASVLNGK [V2L] here?
A: Its protein stability index is 2.96.

Q: Which protein stability index does the source give for TMAGKHQDLKYISPEIMASVLNGK [V2M] here?
A: Its protein stability index is 3.11.

Q: For TNAGKHQDLKYISPEIMASVLNGK [V2N], which protein stability index is on record?
A: Its protein stability index is 3.11.

Q: With TPAGKHQDLKYISPEIMASVLNGK [V2P] as the variant, how does the protein stability index read?
A: Its protein stability index is 3.51.

Q: With TQAGKHQDLKYISPEIMASVLNGK [V2Q] as the variant, how does the protein stability index read?
A: The protein stability index was 3.35.

Q: Which protein stability index does the source give for TRAGKHQDLKYISPEIMASVLNGK [V2R] here?
A: The protein stability index was 3.21.

Q: With TSAGKHQDLKYISPEIMASVLNGK [V2S] as the variant, how does the protein stability index read?
A: Its protein stability index is 3.28.

Q: With TTAGKHQDLKYISPEIMASVLNGK [V2T] as the variant, how does the protein stability index read?
A: The protein stability index was 3.41.

Q: Which protein stability index does the source give for TWAGKHQDLKYISPEIMASVLNGK [V2W] here?
A: Its protein stability index is 2.55.

Q: Which protein stability index does the source give for TYAGKHQDLKYISPEIMASVLNGK [V2Y] here?
A: The protein stability index was 2.79.

Q: For TVCGKHQDLKYISPEIMASVLNGK [A3C], which protein stability index is on record?
A: The protein stability index was 2.47.

Q: With TVDGKHQDLKYISPEIMASVLNGK [A3D] as the variant, how does the protein stability index read?
A: Its protein stability index is 3.74.

Q: With TVEGKHQDLKYISPEIMASVLNGK [A3E] as the variant, how does the protein stability index read?
A: Its protein stability index is 3.39.

Q: For TVFGKHQDLKYISPEIMASVLNGK [A3F], which protein stability index is on record?
A: Its protein stability index is 2.56.

Q: With TVGGKHQDLKYISPEIMASVLNGK [A3G] as the variant, how does the protein stability index read?
A: The protein stability index was 3.14.

Q: With TVHGKHQDLKYISPEIMASVLNGK [A3H] as the variant, how does the protein stability index read?
A: Its protein stability index is 2.85.

Q: For TVIGKHQDLKYISPEIMASVLNGK [A3I], which protein stability index is on record?
A: Its protein stability index is 2.61.

Q: Which protein stability index does the source give for TVKGKHQDLKYISPEIMASVLNGK [A3K] here?
A: Its protein stability index is 3.41.

Q: For TVLGKHQDLKYISPEIMASVLNGK [A3L], which protein stability index is on record?
A: Its protein stability index is 2.69.

Q: Which protein stability index does the source give for TVMGKHQDLKYISPEIMASVLNGK [A3M] here?
A: Its protein stability index is 2.82.

Q: With TVNGKHQDLKYISPEIMASVLNGK [A3N] as the variant, how does the protein stability index read?
A: The protein stability index was 2.79.

Q: With TVPGKHQDLKYISPEIMASVLNGK [A3P] as the variant, how does the protein stability index read?
A: The protein stability index was 3.52.

Q: For TVQGKHQDLKYISPEIMASVLNGK [A3Q], which protein stability index is on record?
A: Its protein stability index is 2.7.

Q: Which protein stability index does the source give for TVRGKHQDLKYISPEIMASVLNGK [A3R] here?
A: The protein stability index was 2.85.

Q: With TVSGKHQDLKYISPEIMASVLNGK [A3S] as the variant, how does the protein stability index read?
A: The protein stability index was 2.93.

Q: With TVTGKHQDLKYISPEIMASVLNGK [A3T] as the variant, how does the protein stability index read?
A: Its protein stability index is 3.31.

Q: Which protein stability index does the source give for TVVGKHQDLKYISPEIMASVLNGK [A3V] here?
A: Its protein stability index is 3.38.

Q: For TVWGKHQDLKYISPEIMASVLNGK [A3W], which protein stability index is on record?
A: The protein stability index was 2.16.

Q: For TVYGKHQDLKYISPEIMASVLNGK [A3Y], which protein stability index is on record?
A: Its protein stability index is 2.79.

Q: Which protein stability index does the source give for TVAAKHQDLKYISPEIMASVLNGK [G4A] here?
A: Its protein stability index is 2.82.

Q: With TVACKHQDLKYISPEIMASVLNGK [G4C] as the variant, how does the protein stability index read?
A: Its protein stability index is 2.82.

Q: For TVADKHQDLKYISPEIMASVLNGK [G4D], which protein stability index is on record?
A: The protein stability index was 3.27.

Q: With TVAEKHQDLKYISPEIMASVLNGK [G4E] as the variant, how does the protein stability index read?
A: The protein stability index was 3.78.

Q: Which protein stability index does the source give for TVAFKHQDLKYISPEIMASVLNGK [G4F] here?
A: The protein stability index was 2.38.

Q: For TVAHKHQDLKYISPEIMASVLNGK [G4H], which protein stability index is on record?
A: The protein stability index was 3.35.

Q: Which protein stability index does the source give for TVAIKHQDLKYISPEIMASVLNGK [G4I] here?
A: The protein stability index was 2.68.

Q: For TVAKKHQDLKYISPEIMASVLNGK [G4K], which protein stability index is on record?
A: The protein stability index was 3.06.

Q: With TVALKHQDLKYISPEIMASVLNGK [G4L] as the variant, how does the protein stability index read?
A: Its protein stability index is 3.16.

Q: For TVAMKHQDLKYISPEIMASVLNGK [G4M], which protein stability index is on record?
A: Its protein stability index is 2.89.

Q: Which protein stability index does the source give for TVANKHQDLKYISPEIMASVLNGK [G4N] here?
A: Its protein stability index is 3.54.

Q: With TVAPKHQDLKYISPEIMASVLNGK [G4P] as the variant, how does the protein stability index read?
A: Its protein stability index is 3.44.

Q: With TVAQKHQDLKYISPEIMASVLNGK [G4Q] as the variant, how does the protein stability index read?
A: Its protein stability index is 3.42.

Q: With TVARKHQDLKYISPEIMASVLNGK [G4R] as the variant, how does the protein stability index read?
A: The protein stability index was 3.5.

Q: With TVASKHQDLKYISPEIMASVLNGK [G4S] as the variant, how does the protein stability index read?
A: The protein stability index was 3.39.

Q: With TVATKHQDLKYISPEIMASVLNGK [G4T] as the variant, how does the protein stability index read?
A: Its protein stability index is 3.11.

Q: For TVAVKHQDLKYISPEIMASVLNGK [G4V], which protein stability index is on record?
A: The protein stability index was 3.38.

Q: Which protein stability index does the source give for TVAWKHQDLKYISPEIMASVLNGK [G4W] here?
A: Its protein stability index is 2.27.

Q: For TVAYKHQDLKYISPEIMASVLNGK [G4Y], which protein stability index is on record?
A: The protein stability index was 3.09.

Q: Which protein stability index does the source give for TVAGAHQDLKYISPEIMASVLNGK [K5A] here?
A: Its protein stability index is 3.45.

Q: For TVAGCHQDLKYISPEIMASVLNGK [K5C], which protein stability index is on record?
A: Its protein stability index is 2.61.

Q: Which protein stability index does the source give for TVAGDHQDLKYISPEIMASVLNGK [K5D] here?
A: Its protein stability index is 3.56.

Q: With TVAGEHQDLKYISPEIMASVLNGK [K5E] as the variant, how does the protein stability index read?
A: Its protein stability index is 3.5.

Q: For TVAGFHQDLKYISPEIMASVLNGK [K5F], which protein stability index is on record?
A: The protein stability index was 3.2.
